First the molecules themselves.
B1: target 3 C6U,U7A (mixed)
RNA 1: CACCCGUGCAAAAUUGCAGGGGUCUAAAACGACCUGAAUAUUUCAGAUCAAA
RNA 2: GGGAAUGGAUCCACAUCUACGAAUUCGUUUUUGAUCUGAAAUAUAUAGGUCUGCAGAUCGGAAGAGCACACGU
B2: target 3 insG 3' of 7,insG 3' of 5 (mixed)
RNA 1: CACCCGUGCAAAAUUGCAGGGGUCUAAAACGACCUGAAUAUUUCAGAUCAAA
RNA 2: GGGAAUGGAUCCACAUCUACGAAUUCGUUUUUGAUCUGAAAUAUUGCAGGGUCUGCAGAUCGGAAGAGCACACGU
B3: target 3 G3A,A5U (mixed)
RNA 1: CACCCGUGCAAAAUUGCAGGGGUCUAAAACGACCUGAAUAUUUCAGAUCAAA
RNA 2: GGGAAUGGAUCCACAUCUACGAAUUCGUUUUUGAUCUGAAAUAUUCUGAUCUGCAGAUCGGAAGAGCACACGU
B4: target 3 U2G,A11C (mixed)
RNA 1: CACCCGUGCAAAAUUGCAGGGGUCUAAAACGACCUGAAUAUUUCAGAUCAAA
RNA 2: GGGAAUGGAUCCACAUCUACGAAUUCGUUUUUGAUCUGAACUAUUCAGGGCUGCAGAUCGGAAGAGCACACGU
B5: target 3 insG 3' of 8,insG 3' of 5 (mixed)
RNA 1: CACCCGUGCAAAAUUGCAGGGGUCUAAAACGACCUGAAUAUUUCAGAUCAAA
RNA 2: GGGAAUGGAUCCACAUCUACGAAUUCGUUUUUGAUCUGAAAUAUGUCAGGGUCUGCAGAUCGGAAGAGCACACGU
B6: target 3 insA 3' of 21,insA 3' of 2 (mixed)
RNA 1: CACCCGUGCAAAAUUGCAGGGGUCUAAAACGACCUGAAUAUUUCAGAUCAAA
RNA 2: GGGAAUGGAUCCACAUCUACGAAUUCGUUUUAUGAUCUGAAAUAUUCAGGUACUGCAGAUCGGAAGAGCACACGU
B7: target 3 insU 3' of 22,insA 3' of 19 (mixed)
RNA 1: CACCCGUGCAAAAUUGCAGGGGUCUAAAACGACCUGAAUAUUUCAGAUCAAA
RNA 2: GGGAAUGGAUCCACAUCUACGAAUUCGUUUUUUGAAUCUGAAAUAUUCAGGUCUGCAGAUCGGAAGAGCACACGU
B8: target 3 del1,del5 (mixed)
RNA 1: CACCCGUGCAAAAUUGCAGGGGUCUAAAACGACCUGAAUAUUUCAGAUCAAA
RNA 2: GGGAAUGGAUCCACAUCUACGAAUUCGUUUUUGAUCUGAAAUAUUCGGUUGCAGAUCGGAAGAGCACACGU
B9: target 3 C1G,G4A (mixed)
RNA 1: CACCCGUGCAAAAUUGCAGGGGUCUAAAACGACCUGAAUAUUUCAGAUCAAA
RNA 2: GGGAAUGGAUCCACAUCUACGAAUUCGUUUUUGAUCUGAAAUAUUCAAGUGUGCAGAUCGGAAGAGCACACGU
B10: target 3 del1 (mixed)
RNA 1: CACCCGUGCAAAAUUGCAGGGGUCUAAAACGACCUGAAUAUUUCAGAUCAAA
RNA 2: GGGAAUGGAUCCACAUCUACGAAUUCGUUUUUGAUCUGAAAUAUUCAGGUUGCAGAUCGGAAGAGCACACGU
B11: target 3 insG 3' of 11,insA 3' of 6 (mixed)
RNA 1: CACCCGUGCAAAAUUGCAGGGGUCUAAAACGACCUGAAUAUUUCAGAUCAAA
RNA 2: GGGAAUGGAUCCACAUCUACGAAUUCGUUUUUGAUCUGAAAGUAUUCAAGGUCUGCAGAUCGGAAGAGCACACGU
B12: target 3 U7G,U22C (mixed)
RNA 1: CACCCGUGCAAAAUUGCAGGGGUCUAAAACGACCUGAAUAUUUCAGAUCAAA
RNA 2: GGGAAUGGAUCCACAUCUACGAAUUCGUUCUUGAUCUGAAAUAUGCAGGUCUGCAGAUCGGAAGAGCACACGU
B13: target 1 insC 3' of 22,insG 3' of 11 (mixed)
RNA 1: CACCCGUGCAAAAAUGCAGGGGUCUAAAACUGAGCGGAUAACCUCUCUAUGG
RNA 2: GGGAAUGGAUCCACAUCUACGAAUUCGUACCCAUAGAGAGGUGUAUCCGCUCACCGAGAUCGGAAGAGCACACGU

Data on 13 molecules can be found in PMC10786891, “Massively parallel profiling of RNA-targeting CRISPR-Cas13d”.

A word on the Kd: it is the equilibrium constant for the complex coming apart. Low readings indicate a tighter complex, high ones a looser complex.

The target in the series is T1, EsCas13d, nuclease-dead (Eubacterium siraeum, UniProt B0MS50, R295A;H300A;R849A;H854A).
T1 sequence: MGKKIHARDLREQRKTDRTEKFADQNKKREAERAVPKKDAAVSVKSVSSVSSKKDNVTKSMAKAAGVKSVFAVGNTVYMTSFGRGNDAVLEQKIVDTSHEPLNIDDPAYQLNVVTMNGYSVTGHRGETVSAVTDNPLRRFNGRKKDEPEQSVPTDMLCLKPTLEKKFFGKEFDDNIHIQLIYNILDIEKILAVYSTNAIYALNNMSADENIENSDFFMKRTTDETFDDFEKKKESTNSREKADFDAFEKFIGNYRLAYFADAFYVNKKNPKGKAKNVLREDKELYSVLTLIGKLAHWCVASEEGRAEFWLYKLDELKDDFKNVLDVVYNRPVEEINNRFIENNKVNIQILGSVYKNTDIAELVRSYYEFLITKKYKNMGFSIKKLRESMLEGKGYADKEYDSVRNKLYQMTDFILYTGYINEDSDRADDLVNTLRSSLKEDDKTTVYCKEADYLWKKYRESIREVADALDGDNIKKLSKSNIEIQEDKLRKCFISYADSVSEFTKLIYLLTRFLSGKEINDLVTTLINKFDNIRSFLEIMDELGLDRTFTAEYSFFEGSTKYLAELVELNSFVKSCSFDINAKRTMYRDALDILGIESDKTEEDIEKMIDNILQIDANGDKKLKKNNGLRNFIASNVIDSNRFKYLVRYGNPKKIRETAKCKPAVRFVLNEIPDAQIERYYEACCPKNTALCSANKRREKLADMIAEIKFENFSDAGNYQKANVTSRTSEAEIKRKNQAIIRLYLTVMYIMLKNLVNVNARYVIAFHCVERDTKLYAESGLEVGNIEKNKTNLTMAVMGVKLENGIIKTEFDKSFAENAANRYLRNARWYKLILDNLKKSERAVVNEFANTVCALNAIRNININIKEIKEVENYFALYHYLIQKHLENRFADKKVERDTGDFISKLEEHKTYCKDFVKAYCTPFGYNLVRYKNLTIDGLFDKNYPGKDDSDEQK
Put plainly: crRNA (strand 1, pre-loaded); Mg2+; 40 mM Tris-HCl pH 7.5, 150 mM NaCl, 6 mM MgCl2, 1 mM DTT, 0.1% Tween-20, 0.2 mg/ml BSA; 25 C; 10 min per concentration, then washed. Conditions: tags: His6-TwinStrep-SUMO cleaved; N-terminal SNAP kept (SNAP-Surface 488); label: 3' end held by stalled T7 RNA polymerase.
On to B1, for which the Kd stood at 40 ± 4.25 nM. With B2, the dissociation constant Kd was found to be 46.5 ± 7.5 nM. Molecule B3 displayed a Kd of 61.5 ± 8.5 nM.

Molecule B4 showed an equilibrium dissociation constant (Kd) of 63 ± 25.5 nM.

In the case of B5, binding was put at a Kd of 62 ± 11 nM. Consider B6, for which the Kd is 30.3 ± 2.6 nM. In turn, B7 registered a Kd of 77 ± 16 nM. In the case of B8, the Kd came to 14 ± 2.2 nM.

B9 showed a Kd of 15.9 ± 1.8 nM. B10 returned a Kd of 27.1 ± 2.55 nM. In the case of B11, binding was put at a Kd of 91.5 ± 22 nM.

The molecule B12 showed a Kd of 65 ± 26 nM.

As for B13, the dissociation constant (Kd) came out at 41 ± 4 nM.
